Results from publication PMC7113306.
Read-outs that look alike come from different tables or passages of the source.

Key:
[1] = molecular target: ALK1-Fc (ALK1 extracellular domain-Fc fusion protein) (UniProt P37023); assay: SPR; Biacore T100; ALK1-Fc (800 RU) or ALK1 monomer (270 RU) amine-coupled to a CM5 chip; ligands injected at 30 μl min^-1 in 0.01 M HEPES pH 7.4, 0.5 M NaCl, 3 mM EDTA, 0.5 mg ml^-1 BSA, 0.01% P20, 25 °C; 1:1 model with mass transport limitations; KD = kd/ka
[2] = molecular target: ALK1-Fc ECD (Homo sapiens) (UniProt P37023); settings: cited from earlier work
Chain of ALK1-Fc ECD (Homo sapiens) (P37023 22-118): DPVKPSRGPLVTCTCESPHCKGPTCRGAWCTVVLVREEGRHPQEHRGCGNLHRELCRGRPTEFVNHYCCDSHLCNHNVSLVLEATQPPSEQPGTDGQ

[3] = molecular target: ALK1-Fc ECD (Homo sapiens) (UniProt P37023); settings: cited from earlier work; remark: listed apart in the source

Chain of ALK1-Fc (ALK1 extracellular domain-Fc fusion protein) (P37023 22-118): as above
Chain of BMP9 (Q9UK05 320-429): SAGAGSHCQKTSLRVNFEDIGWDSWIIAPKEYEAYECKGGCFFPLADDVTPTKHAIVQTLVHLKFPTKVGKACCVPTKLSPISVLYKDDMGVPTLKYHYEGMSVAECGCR
Chain of BMP10 (O95393 317-424): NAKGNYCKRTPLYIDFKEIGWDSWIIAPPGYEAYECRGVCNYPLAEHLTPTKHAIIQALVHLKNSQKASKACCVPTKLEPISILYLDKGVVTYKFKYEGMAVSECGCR

Row | Kd [1] | Substance | also measured
1 | 0.0481 nM | BMP9 GF-domain (bone morphogenetic protein 9 growth factor domain) (from UniProt Q9UK05 320-429) (ligand) | –
2 | – | BMP10 (from UniProt O95393) | Kd [2]: 0.0103 nM
3 | – | BMP9 (from UniProt Q9UK05) | Kd [3]: 0.0452 nM
4 | 0.0343 nM | BMP10 GF-domain (bone morphogenetic protein 10 growth factor domain) (from UniProt O95393 317-424) (ligand) | –
